Key:
[1] = tested on: PKGIα (analogue-sensitive M438G), disulfide-activated; assay: Chemical genetic phosphoproteomic screen, disulfide-activated PKGIα M438G versus unactivated control; assay type: biochemical, human PKGIα; substrates in rat heart homogenate
Procedure, shortened: (§1)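 Substrates in rat left-ventricle homogenate (20 mg ml) are labelled by engineered Met438Gly PKGIα given a bulky N6-alkylated ATPγS analogue, either as disulfide-activated M438G (oxidized, DTT-free) or as cGMP-activated C42S/M438G. Covalent capture and LC–MS/MS identify sites relative to unactivated kinase.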

[2] = tested on: PKGIα (analogue-sensitive C42S/M438G), cGMP-activated; assay: Chemical genetic phosphoproteomic screen, cGMP-activated PKGIα C42S/M438G versus unactivated control; assay type: biochemical, human PKGIα; substrates in rat heart homogenate
Procedure, shortened: as §1

[3] = tested on: PKGIα Cys42 interchain disulfide bond; assay: Dihydrolipoic acid/lipoic acid redox titration of recombinant PKGIα, disulfide dimerization by SDS-PAGE; assay type: physicochemical; settings: in vitro, unpublished data
Source text: PhD thesis (2015) by Daniel Stubbert from this lab. We have amended the manuscript so that it now states that the PKGIα Cys42 disulfide bond is reversible and referenced the literature detailing the auranofin experiments described above:
“Reactive oxygen species (ROS) promote formation of a reversible intermolecular disulfide bond between the two subunits of the PKGIα homodimer at Cys424,5.”
Furthermore, in relation to reversibility, we also have unpublished data relating to the thermodynamic stability of the Cys42 interchain disulfide bond in vitro. We have performed a dihydrolipoic acid/lipoic acid redox titration with recombinant PKGIα and analysed the amount of disulfide dimerization by SDS-PAGE. The equilibrium redox potential was determined as approximately −280 mV; a value within the conﬁnes of the cellular redox potenƟal which ranges from ~−350 to –150 mV depending on e.g. the organelle an d stage of the cell cycle (Jones, D. P.
Journal of Internal Medicine 268, 432-448 (2010); Jones, D. P. American Journal of Physiology - Cell […]
consistent with our findings from tissue and cells, and arguably ex actly what would be expected of a protein that is required to rapidly transduce an oxidant signal into a biological response.
--What are the consequences of cys42 oxidation for cGMP activation of PKG? […]

B1: Wbp11 pS600 (protein, UniProt Q5PQQ2 1-641, looked up)
WW domain-binding protein 11: MGRRSTSSTKSGKFMNPTDQARKEARKRELKKNKKQRMMVRAAVLKMKDPKQIIRDMEKLDEMEFNPVQQPQLNEKVLKDKRKKLRETFERILRLYEKENPDIYKELRKLEVEYEQKRAQLSQYFDAVKNAQHVEVESIPLPDMPHAPSNILIQDIPLPGAQPPSILKKTSAYGPPTRAVSILPLLGHGVPRLPPGRKPPGPPPGPPPPQVLQMYGRKVGFALDLPPRRRDEDMLYSPELAQRGHDDDMSSTSEDDGYPEDMDQDKHDDSTEDSDTDRSDAESDGDEFGHRDDSERDNTEEKKSGLSVRFADMPGKSRKKKKNMKELTPLQAMMLRMAGQEIPEEGREVEEFSEEEDDDDSEDSEAEKPSQKQHKEDSHADGSSAASSQQQAPPQAVPPSQIQAPPMPGPPPLGPPPAPPLRPPGPPTGLPPGPPPGAPPFLRPPGMPGIRGPLPRLLPPGPPPGRPPGPPPGPPPGLPPGPPPRGPPPRLPPPAPPGIPPPRPGMMRPPLVPPLGPAPPGLFPPAPLPNPGVLSAPPSLIQRPKADDASAATIEKKATATISAKPQITNPKAEVTRFVPTALRVRRENKGATAVPQRRSEEDSAVPVAKAAPRSGPSVPVSVQTKDDVYEAFMKEMEGLL
modifications: phosphorylated at S600
Q: Which results are given for B1?
A: log2 fold changes ([1]; Group 2 (disulfide-activated) vs Group 3 (control)): 2.503; log2 fold changes ([2]; Group 1 (cGMP-activated) vs Group 3 (control)): 4.049

B2: PKGIα: recombinant PKGIα; Cys42 interchain disulfide bond (protein)
chain: MSELEEDFAKILMLKEERIKELEKRLSEKEEEIQELKRKLHKCQSVLPVPSTHIGPRTTRAQGISAEPQTYRSFHDLRQAFRKFTKSERSKDLIKEAILDNDFMKNLELSQIQEIVDCMYPVEYGKDSCIIKEGDVGSLVYVMEDGKVEVTKEGVKLCTMGPGKVFGELAILYNCTRTATVKTLVNVKLWAIDRQCFQTIMMRTGLIKHTEYMEFLKSVPTFQSLPEEILSKLADVLEETHYENGEYIIRQGARGDTFFIISKGTVNVTREDSPSEDPVFLRTLGKGDWFGEKALQGEDVRTANVIAAEAVTCLVIDRDSFKHLIGGLDDVSNKAYEDAEAKAKYEAEAAFFANLKLSDFNIIDTLGVGGFGRVELVQLKSEESKTFAMKILKKRHIVDTRQQEHIRSEKQIMQGAHSDFIVRLYRTFKDSKYLYMLMEACLGGELWTILRDRGSFEDSTTRFYTACVVEAFAYLHSKGIIYRDLKPENLILDHRGYAKLVDFGFAKKIGFGKKTWTFCGTPEYVAPEIILNKGHDISADYWSLGILMYELLTGSPPFSGPDPMKTYNIILRGIDMIEFPKKIAKNAANLIKKLCRDNPSERLGNLKNGVKDIQKHKWFEGFNWEGLRKGTLTPPIIPSVASPTDTSNFDSFPEDNDEPPPDDNSGWDIDF
modifications: intermolecular disulfide bond at Cys42 between the two subunits
Q: Which “equilibrium redox potential of the Cys42 interchain disulfide bond” value [3] does the source give for B2 here?
A: approximately −280 mV

B3: Pfkfb2 pS486 (protein, UniProt Q9JJH5 2-557, looked up)
6-phosphofructo-2-kinase/fruct …: SENSTFSTEDSSSSSYKPHASNLRRAGKKCSWASYMTNSPTLIVMIGLPARGKTYVSKKLTRYLNWIGVPTKVFNLGVYRREAVKSYKSYDFFRHDNEEAMKIRKQCALVALEDVKAYFTEESGQIAVFDATNTTRERRDMILNFAKQNAFKVFFVESVCDDPDVIAANILEVKVSSPDYPERNRENVMEDFLKRIECYKVTYQPLDPDNYDKDLSFIKVMNVGQRFLVNRVQDYIQSKIVYYLMNIHVHPRTIYLCRHGESEFNLLGKIGGDSGLSLRGKQFAQALKKFLEEQEIQDLKVWTSQLKRTIQTAESLGVTYEQWKILNEIDAGVCEEMTYSEIEQRYPEEFALRDQEKYLYRYPGGESYQDLVQRLEPVIMELERQGNVLVISHQAVMRCLLAYFLDKGADELPYLRCPLHIIFKLTPVAYGCKVETITLNVEAVDTHRDKPTHNFPKSQTPVRMRRNSFTPLSSSNTIRRPRNYSVGSRPLKPLSPLRALDMQEGADQPKTQVQQGSAQATEHLQKALEFANGHREVENVLAKHRRPSMASLTLLS
modifications: phosphorylated at S486
Q: Which results are given for B3?
A: log2 fold change Disulfide vs Control ([1]; control = PKGIα C42S/M438G): -0.4793; log2 fold change cGMP vs Control ([2]; control = PKGIα C42S/M438G): 0.2997

Reference: article PMC5095173, “Disulfide-activated protein kinase G Iα regulates cardiac diastolic relaxation and fine-tunes the Frank–Starling response” (Nature Communications, 2016)
